{"source": "patent US20090012494A1", "about": "“I[…] OF BIOLOGICAL AGENTS” (NanoPass Technologies Ltd., priority 2006, published 2009)", "target": "T1, Insulin from Porcine Pancreas (antigen) (Sus scrofa, UniProt P01315)", "T1 construct": "Insulin from Porcine Pancreas; purchased SIGMA 1-5523; host or cells: porcine pancreas (tissue-derived)", "T1 sequence (P01315 25-54 limits assumed)": "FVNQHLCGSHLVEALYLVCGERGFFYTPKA", "T1 sequence (P01315 88-108 limits assumed)": "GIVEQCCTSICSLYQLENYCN", "test": "Guinea pig ID immunization with porcine insulin; antigen/antibody complex by Dextran coated Charcoal Radioimmunoassay", "type": "in vivo, Dunkin Hartley male Guinea Pigs", "procedure": "Various animals (e.g., Guinea pigs) are used in industry to produce primary and secondary antibodies for biological and clinical research, based on immunoassay methods (e.g. ELISA). In some of these animals the specific antigen is injected intradermally, in order to achieve a larger and/or faster immune response (antibodies production). After the primary immunization, several immunization boosters are given at different time intervals, and blood is collected. The antibodies production level is measured by measuring the antigen/antibody complex formation levels, in different dilution levels, using conventional immunoassay methods. Usually, a fixed cut-off value (percentage of antigen/antibodies complex formation in a specific dilution level) must be achieved.\n18 Dunkin Hartley male Guinea Pigs were divided into two groups. The animals were anesthetized with a 0.2 ml of Ketamine/Xylazine mixture (1:1 ratio) I.M. Anesthetizing was followed by 0.1 ml I.D. immunization with Insulin from Porcine Pancreas (SIGMA, Cat. No. 1-5523) in a Freund's adjuvant emulsion mixture (SIGMA), injected in 4 sites on the skin. […] After plasma separation, antigen/antibody complex levels were detected in the 2 ml serum sample, using a Dextran coated Charocal Radioimmunoassay method."}
{"substance": "Insulin from Porcine Pancreas: Insulin from Porcine Pancreas (SIGMA) in a Freund's adjuvant emulsion mixture, used as immunizing antigen", "values": [{"measurement": "production time needed to achieve the per-protocol cut-off value, microneedle versus regular injection", "setting": "cut-off 50% Antigen/Antibody complex formation at dilution 1:80 K, microneedle vs regular 25 g needle", "value": 3, "unit": "times shorter"}, {"measurement": "Antigen/Antibody complex formation, Ka [L/mol] values, microneedle versus regular injection", "setting": "dilution level 1:80K, ID microneedles (Nano) vs regular 25 g hypodermic needle, in Freund's adjuvant", "value": "more than 3 times higher"}]}
